Laboratory results taken from PMC5509884, “Dampened activity of ryanodine receptor channels in mutant skeletal muscle lacking TRIC‐A” (The Journal of Physiology, 2017).

Biological target: the molecule itself
Test: SDS-PAGE immunoblot of the purified protein; anti-PA tag immunoblot of the fractions of the PA-tag column purification of recombinant TRIC-A from CHO cells (buffers with 0.1% DM); bands marked as monomer, dimer and trimer

B1: mouse TRIC-A (type A trimeric intracellular cation channel), full length, with an N-terminal PA-tag (natural protein, UniProt Q3TMP8 1-298, looked up)
chain: MDLMSALSLGELALSFSRVPLFPVFDLSYFIVSIIYLKYEPGAVELSRRHPVASWLCAMLHCFGSYILADLLLGEPIIDYFSNSSSILLASGVWYLIFFCPLDLFYKCVCFLPVKLIFVAMKEVVRVRKIAVGIHHAHHHYHHGWFIMIATGWVKGSGVALLSNVEQLLRGVWKPETNEILHMSFPTKASLYGAILFTLQQTRWLPVSKASLIFVFTMFMVSCKVFLTATHSHSSPFDILEGYICPVLFGATWGGDHHHDNHGAPHGMGLGTQHSGLPAKAKEELGEGSRKKKTKKAD
notes: TRIC-A (trimeric intracellular cation channel type A), mouse, full-length cDNA; The introduction says, citing other work, that TRIC channels are trimers of three monomers of about 30 kDa; also called purified TRIC-A; recombinant TRIC-A; not shown: PA-tag, N-terminal, kept
binding result: binds
